From PMC10397247

Experiments:
Assay in all cases: two-hybrid library CCNG1;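 further: natural log of median RNA to DNA barcode read ratio; higher means stronger binding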
[1] = target: T1, 4H717-bN
T1 chain: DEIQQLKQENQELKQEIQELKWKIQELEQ

[2] = target: T2, 4H908-bN
T2 chain: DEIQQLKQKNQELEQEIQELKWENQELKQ

[3] = target: T3, P4mS
T3 chain: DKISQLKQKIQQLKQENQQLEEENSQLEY

[4] = target: T4, 4H72-bN
T4 chain: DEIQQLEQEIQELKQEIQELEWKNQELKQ

[5] = target: T5, 4H331-bN
T5 chain: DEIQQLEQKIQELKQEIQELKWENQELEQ

[6] = target: T6, 4H967-bN
T6 chain: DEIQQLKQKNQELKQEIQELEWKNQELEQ

[7] = target: T7, 4H918-bN
T7 chain: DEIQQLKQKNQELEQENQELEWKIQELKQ

[8] = target: T8, 4H3185-bN
T8 chain: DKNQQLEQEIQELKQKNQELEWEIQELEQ

[9] = target: T9, 4H953-bN
T9 chain: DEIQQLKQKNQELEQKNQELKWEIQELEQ

[10] = target: T10, 4H607-bN
T10 chain: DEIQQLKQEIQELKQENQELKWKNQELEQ

[11] = target: T11, 4H568-bN
T11 chain: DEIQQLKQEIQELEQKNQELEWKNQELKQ

[12] = target: T12, P9SHb
T12 chain: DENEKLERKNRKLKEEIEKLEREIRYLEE

[13] = target: T13, 4H883-bN
T13 chain: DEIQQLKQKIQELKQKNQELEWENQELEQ

[14] = target: T14, 4H687-bN
T14 chain: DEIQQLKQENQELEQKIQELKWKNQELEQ

[15] = target: T15, 4H3855-bN
T15 chain: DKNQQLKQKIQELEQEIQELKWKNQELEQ

[16] = target: T16, 4H3782-bN
T16 chain: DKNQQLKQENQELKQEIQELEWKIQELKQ

[17] = target: T17, 4H454-bN
T17 chain: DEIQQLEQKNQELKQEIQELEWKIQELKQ

[18] = target: T18, 4H754-bN
T18 chain: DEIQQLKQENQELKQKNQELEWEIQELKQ

[19] = target: T19, 4H3427-bN
T19 chain: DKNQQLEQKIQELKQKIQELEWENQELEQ

[20] = target: T20, 4H338-bN
T20 chain: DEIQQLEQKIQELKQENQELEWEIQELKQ

[21] = target: T21, 4H3354-bN
T21 chain: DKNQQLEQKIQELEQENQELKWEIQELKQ

[22] = target: T22, 4H797-bN
T22 chain: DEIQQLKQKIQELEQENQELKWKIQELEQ

[23] = target: T23, 4H4001-bN
T23 chain: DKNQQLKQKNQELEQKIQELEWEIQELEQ

[24] = target: T24, 4H626-bN
T24 chain: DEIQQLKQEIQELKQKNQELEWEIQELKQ

[25] = target: T25, 4H1899-bN
T25 chain: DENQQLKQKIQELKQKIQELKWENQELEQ

[26] = target: T26, 4H1710-bN
T26 chain: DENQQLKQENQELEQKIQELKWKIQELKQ

[27] = target: T27, 4H3628-bN
T27 chain: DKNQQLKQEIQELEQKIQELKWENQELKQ

[28] = target: T28, 4H570-bN
T28 chain: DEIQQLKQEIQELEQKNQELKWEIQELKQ

[29] = target: T29, 4H850-bN
T29 chain: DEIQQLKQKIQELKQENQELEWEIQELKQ

[30] = target: T30, 4H3926-bN
T30 chain: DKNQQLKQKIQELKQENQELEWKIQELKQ

[31] = target: T31, 4H1544-bN
T31 chain: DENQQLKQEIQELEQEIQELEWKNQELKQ

[32] = target: T32, 4H1449-bN
T32 chain: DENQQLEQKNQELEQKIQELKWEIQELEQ

[33] = target: T33, 4H338-bH
T33 chain: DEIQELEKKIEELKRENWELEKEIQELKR

[34] = target: T34, 4H906-bN
T34 chain: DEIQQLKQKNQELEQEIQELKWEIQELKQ

[35] = target: T35, 4H3858-bN
T35 chain: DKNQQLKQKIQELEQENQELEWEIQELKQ

[36] = target: T36, 4H1373-bN
T36 chain: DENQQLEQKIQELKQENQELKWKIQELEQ

[37] = target: T37, 4H3277-bN
T37 chain: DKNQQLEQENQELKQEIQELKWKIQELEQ

[38] = target: T38, 4H3974-bN
T38 chain: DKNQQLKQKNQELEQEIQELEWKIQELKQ

[39] = target: T39, 4H591-bN
T39 chain: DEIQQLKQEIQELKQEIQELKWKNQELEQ

[40] = target: T40, 4H3175-bN
T40 chain: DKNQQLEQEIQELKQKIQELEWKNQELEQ

[41] = target: T41, 4H2697-bH
T41 chain: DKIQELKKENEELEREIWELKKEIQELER

[42] = target: T42, 4H1985-bN
T42 chain: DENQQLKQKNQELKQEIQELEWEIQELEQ

[43] = target: T43, 4H3298-bN
T43 chain: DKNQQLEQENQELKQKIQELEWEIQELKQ

[44] = target: T44, 4H3462-bN
T44 chain: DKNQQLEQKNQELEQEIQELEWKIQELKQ

[45] = target: T45, 4H3817-bN
T45 chain: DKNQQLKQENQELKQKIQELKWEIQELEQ

[46] = target: T46, 4H3162-bN
T46 chain: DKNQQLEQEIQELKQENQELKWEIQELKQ

[47] = target: T47, 4H3613-bN
T47 chain: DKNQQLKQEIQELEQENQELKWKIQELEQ

[48] = target: T48, 4H3497-bN
T48 chain: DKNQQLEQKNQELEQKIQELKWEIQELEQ

Binder: DKNQQLEQEIQELKQKNQELEWEIQELEQ [4H3185-bN]
- interaction score [1]: -0.903
- interaction score [2]: -0.952
- interaction score [3]: -0.366
- interaction score [4]: -2.24
- interaction score [5]: -2.02
- interaction score [6]: -2.19
- interaction score [7]: -1.19
- interaction score [8]: -1.05
- interaction score [9]: -1.45
- interaction score [10]: -0.581
- interaction score [11]: -2.82
- interaction score [12]: -0.815
- interaction score [13]: -1.12
- interaction score [14]: -2.77
- interaction score [15]: -1.23
- interaction score [16]: -0.997
- interaction score [17]: -2.08
- interaction score [18]: -0.979
- interaction score [19]: -0.99
- interaction score [20]: -1.14
- interaction score [21]: -0.593
- interaction score [22]: -0.638
- interaction score [23]: -1.46

Binder: DENQQLEQKIQELKQENQELKWKIQELEQ [4H1373-bN]
- interaction score [24]: -0.375
- interaction score [25]: -1.32
- interaction score [26]: -0.292
- interaction score [27]: -0.846
- interaction score [28]: -1.29
- interaction score [4]: -2.48
- interaction score [29]: -0.952
- interaction score [30]: 1.21
- interaction score [31]: -0.522
- interaction score [32]: -0.869
- interaction score [33]: -0.758
- interaction score [34]: -1.37
- interaction score [35]: 0.337
- interaction score [36]: -0.169
- interaction score [37]: -1.18
- interaction score [38]: -0.592
- interaction score [39]: -0.619
- interaction score [40]: -0.941
- interaction score [41]: -2.86
- interaction score [42]: -1.63
- interaction score [43]: -0.763
- interaction score [44]: -0.946
- interaction score [45]: -0.749
- interaction score [46]: -0.675
- interaction score [47]: 1.13
- interaction score [48]: -1.41
